Experimental data as given in patent publication US20220064314A1 (QLSF BIOTHERAPEUTICS, published 2022).

Legend:
[1] = biological target: T1, human 4-1BB on cells (human, UniProt Q07011 24-255); assay: cell-based or functional assay
[2] = biological target: T2, 4-1BB (CD137), antigen of the Octet kinetics (UniProt Q07011 24-186, limits assumed); assay: Octet (BLI), mono-valent binding kinetics
T2 construct: also called TNFRSF9

[3] = biological target: T3, mouse 4-1BB on HEK293 cells (mouse, UniProt P20334 24-256); assay: flow cytometry, mouse 4-1BB transfected HEK293 cells
T3 construct: whole, on cells; also called Mouse 4-1BB transfected HEK293 cells
T3 sequence (looked up): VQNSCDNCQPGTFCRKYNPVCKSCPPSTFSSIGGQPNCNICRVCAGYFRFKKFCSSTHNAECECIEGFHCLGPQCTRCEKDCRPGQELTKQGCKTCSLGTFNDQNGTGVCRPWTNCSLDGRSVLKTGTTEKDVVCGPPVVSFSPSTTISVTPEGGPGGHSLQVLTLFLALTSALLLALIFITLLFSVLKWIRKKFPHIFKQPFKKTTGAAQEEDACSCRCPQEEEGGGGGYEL
Procedure: (§1) Human/Cyno/Mouse 4-1BB transfected HEK293 cells or PHA-P stimulated PBMCs were incubated with serial diluted anti-4-1BB antibodies in FACS buffer (DPBS+ 2% FBS+ 0.05% sodium azide) followed by AF647-labeled F(ab′)2 goat anti-human IgG and 7-AAD. In addition, PBMCs were incubated with FITC Mouse anti-human CD3. Stained 4-1BB expressing HEK293 samples were analyzed using FlowJo by gating on FSC/SSC, followed by live/dead cell gating, and human/Cynomolgous/Mouse 4-1BB+ cells (MFI Geo Mean denoted). Stained Lymphocyte samples were analyzed using FlowJo by gating on FSC/SSC, followed by live/dead cell gating, and CD3+ cells with 4-1BB positives. (Table 2 and Table 3)

[4] = biological target: T1, human 4-1BB on cells; assay: flow cytometry, activated (PHA-P stimulated) human T cells
Procedure: as §1

[5] = biological target: T1, human 4-1BB on cells; assay: flow cytometry, HEK293 cells over-expressing human 4-1BB
Procedure: as §1

[6] = biological target: T4, cyno 4-1BB on HEK293 cells (cyno, UniProt A9YYE7 24-254); assay: flow cytometry, HEK293 cells over-expressing cyno 4-1BB
T4 construct: whole, on cells; also called Cynomolgous 4-1BB; HEK293 cells over-expressing cyno 4-1BB
T4 sequence (A9YYE7 entry or part of it): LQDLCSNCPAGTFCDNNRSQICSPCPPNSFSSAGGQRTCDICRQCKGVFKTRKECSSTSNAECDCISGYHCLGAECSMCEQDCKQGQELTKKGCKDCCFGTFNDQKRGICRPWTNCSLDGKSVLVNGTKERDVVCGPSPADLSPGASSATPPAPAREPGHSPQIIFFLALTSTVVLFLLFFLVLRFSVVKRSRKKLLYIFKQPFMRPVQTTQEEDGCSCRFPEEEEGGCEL
Procedure: as §1

[7] = biological target: T1, human 4-1BB on cells; assay: cell-based or functional assay; remark: listed apart in the source

T1 sequence (Q07011 24-255): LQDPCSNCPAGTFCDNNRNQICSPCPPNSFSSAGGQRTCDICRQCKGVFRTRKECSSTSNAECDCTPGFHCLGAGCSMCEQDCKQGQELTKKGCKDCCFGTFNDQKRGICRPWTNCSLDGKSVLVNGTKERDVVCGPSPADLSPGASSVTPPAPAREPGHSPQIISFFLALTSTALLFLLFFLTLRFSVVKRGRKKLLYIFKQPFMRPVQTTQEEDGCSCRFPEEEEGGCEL

B1: huF1.1.G2.2.4 (antibody, human IgG2, kappa, V domains shown)
VH: QVQLVQSGAEVKKPGASVKVSCKASGYTFTFYTMHWLRQAPGQGLEWIGYINPSSGYTNYNQKFTDRATLTADTSTSTAYMELSSLRSEDTAVYYCARSDGSSSKWYFDVWGQGTTVTVSS
VL: EIVLTQSPDFQSATPKEKVTITCRASSSVSYIHWYQQKPGSSPKAWISATSNLASGVPSRFSGSGSGTSYTLTINRVEAEDAATYYCQQWSSNPFTFGQGTKLEIKR
notes: also called huF1.1.2.4
- NF-KB reporter activation, curve fit Bottom [1]: 838 RLU
- NF-KB reporter activation, curve fit Top [1]: 7190 RLU
- Kd [2]: 40.6 nM
- Response [2]: 0.12
- T1/2 Life [2]: 2.1 min
- koff [2]: 0.00559 s⁻¹
- kon [2]: 138000 M⁻¹ s⁻¹

B2: huF1.1.G2.4.4 (antibody, human IgG2, kappa, V domains shown)
VH: QVQLVQSGAEVKKPGASVKMSCKASGYTFTFYTMHWLKQAPGQGLEWIGYINPSSGYTNYNQKFTDRATLTADKSTSTAYMELSSLRSEDTAVYYCARSDGSSSKWYFDVWGQGTTVTVSS
VL: EIVLTQSPDFQSATPKEKVTITCRASSSVSYIHWYQQKPGSSPKAWISATSNLASGVPSRFSGSGSGTSYTLTINRVEAEDAATYYCQQWSSNPFTFGQGTKLEIKR
notes: also called huF1.1.4.4
- NF-KB reporter activation, curve fit Bottom [1]: 666 RLU
- NF-KB reporter activation, curve fit Top [1]: 5940 RLU
- Kd [2]: 40.4 nM
- Response [2]: 0.137
- T1/2 Life [2]: 1.9 min
- koff [2]: 0.00618 s⁻¹
- kon [2]: 153000 M⁻¹ s⁻¹

B3: F1.1 (antibody, V domains shown)
VH: QVQLQQSGAELARPGASVKMSCKASGYTFTFYTMHWLKQRPGQGLEWIGYINPSSGYTNYNQKFTDKATLTADKSSSTAYMQLSSLTSEDSAVYYCARSDGSSSKWYFDVWGTGTTVTVSS
VL: QIVLSQSPTILSASPGEKVTMTCRASSSVSYIHWYQQKPGSSPKAWISATSNLASGVPARFSGSGSGTSYSLTISRVEAEDAATYYCQQWSSNPFTFGSGTKLEIK
notes: The flow method detects with anti-human IgG; also called anti-4-1BB mAb F1.1
- binding result [3]: no binding
- EC50 [4]: 0.233 µg/mL
- EC50 [5]: 0.341 µg/mL
- EC50 [6]: 0.392 µg/mL
- NF-kB Stimulation (EC50) [7]: 0.026 µg/mL

B4: cAb 137QL.F1.1.G2 (antibody, human IgG2, V domains shown)
VH: QVQLQQSGAELARPGASVKMSCKASGYTFTFYTMHWLKQRPGQGLEWIGYINPSSGYTNYNQKFTDKATLTADKSSSTAYMQLSSLTSEDSAVYYCARSDGSSSKWYFDVWGTGTTVTVSS
VL: QIVLSQSPTILSASPGEKVTMTCRASSSVSYIHWYQQKPGSSPKAWISATSNLASGVPARFSGSGSGTSYSLTISRVEAEDAATYYCQQWSSNPFTFGSGTKLEIK
notes: Chimeric antibody; also called Chimeric F1.1; cAb F1.1.G2
- NF-KB reporter activation, curve fit Bottom [1]: 894 RLU
- NF-KB reporter activation, curve fit Top [1]: 6730 RLU
- Kd [2]: 41.9 nM
- Response [2]: 0.138
- T1/2 Life [2]: 2 min
- koff [2]: 0.00578 s⁻¹
- kon [2]: 138000 M⁻¹ s⁻¹

B5: huG28.21.G2.1.4 (antibody, human IgG2, kappa, V domains shown)
VH: EVQLVQSGAEVKKPGATVKISCKASGFNIKDYYIHWVNQAPGKGLEWIGRIDPEDGDIAYAPKFQDRVTLTVDTSTDTAYLELSSLRSEDTAVYYCTTGNYYAMDFWGQGTTVTVSS
VL: QIVLTQSPATLSASPGERVTLSCTASSSVSSSYLHWYQQKPGSSPKLWIYSTSNLASGVPARFSGSGPGTSYTLTISSMEPEDAATYYCHQYHRSPPTFGQGTKLEIKR
notes: also called huG28.21.1.4
- NF-KB reporter activation, curve fit Bottom [1]: 625 RLU
- NF-KB reporter activation, curve fit Top [1]: 4170 RLU
- Kd [2]: 15.3 nM
- Response [2]: 0.181
- T1/2 Life [2]: 1.8 min
- koff [2]: 0.00652 s⁻¹
- kon [2]: 426000 M⁻¹ s⁻¹

B6: huG28.21.G2.4.4 (antibody, human IgG2, kappa, V domains shown)
VH: EVQLQQSGAEVKKPGATVKLSCKASGFNIKDYYIHWVNQRPGQGLEWIGRIDPEDGDIAYAPKFQDRATLTVDTSTNTAYLELSSLRSEDTAVYYCTTGNYYAMDFWGQGTTVTVSS
VL: QIVLTQSPATLSASPGERVTLSCTASSSVSSSYLHWYQQKPGSSPKLWIYSTSNLASGVPARFSGSGPGTSYTLTISSMEPEDAATYYCHQYHRSPPTFGQGTKLEIKR
notes: also called huG28.21.4.4
- NF-KB reporter activation, curve fit Bottom [1]: 592 RLU
- NF-KB reporter activation, curve fit Top [1]: 3920 RLU
- Kd [2]: 10.4 nM
- Response [2]: 0.175
- T1/2 Life [2]: 2.5 min
- koff [2]: 0.00467 s⁻¹
- kon [2]: 449000 M⁻¹ s⁻¹

B7: G28.21 (antibody, V domains shown)
VH: EVQLQQSGAELVRPGASVKLSCTASGFNIKDYYIHWVNQRPEQGLEWIGRIDPEDGDIAYAPKFQDKATLTVDTSSNTAYLHIIGLTSEDTAVYYCTTGNYYAMDFWGQGTSVTVSS
VL: QIVLTQSPAIMSASLGERVTMTCTASSSVSSSYLHWYQQKPGSSPKLWIYSTSNLASGVPARFSGSGSGTSYSLTISSMEAEDAATYYCHQYHRSPPTFGSGTKLEIK
notes: also called anti-4-1BB mAb G28.21
- binding result [3]: no binding
- EC50 [4]: 0.08 µg/mL
- EC50 [5]: 0.121 µg/mL
- EC50 [6]: 0.162 µg/mL
- NF-kB Stimulation (EC50) [7]: 0.018 µg/mL

B8: cAB 137QL.G28.21.G2 (antibody, human IgG2, V domains shown)
VH: EVQLQQSGAELVRPGASVKLSCTASGFNIKDYYIHWVNQRPEQGLEWIGRIDPEDGDIAYAPKFQDKATLTVDTSSNTAYLHIIGLTSEDTAVYYCTTGNYYAMDFWGQGTSVTVSS
VL: QIVLTQSPAIMSASLGERVTMTCTASSSVSSSYLHWYQQKPGSSPKLWIYSTSNLASGVPARFSGSGSGTSYSLTISSMEAEDAATYYCHQYHRSPPTFGSGTKLEIK
notes: Chimeric antibody; also called Chimeric G28.21; cAb G28.21.G2
- NF-KB reporter activation, curve fit Bottom [1]: 879 RLU
- NF-KB reporter activation, curve fit Top [1]: 4590 RLU
- Kd [2]: 14 nM
- Response [2]: 0.204
- T1/2 Life [2]: 2.2 min
- koff [2]: 0.00523 s⁻¹
- kon [2]: 373000 M⁻¹ s⁻¹
